Measured values taken from patent publication US20050147614A1 (CANCER RESEARCH TECHNOLOGY, published 2005).
Several values for one entry are separate records, joined by “and”; a condition that tells them apart may be missing. Identical values can stand only once. Values belong to the molecule of their own block, whether it stands above or below them.

What was measured:
[1] = molecular target: carcinoembryonic antigen (CEA) (UniProt P06731); assay: off-rate analysis on the yeast surface at 37 C
[2] = molecular target: T1, carcinoembryonic antigen (CEA) (UniProt P06731 35-685, limits assumed, biotinylated (labelled form); unlabelled CEA (Calbiochem) used as competitor in the off-rate assays); assay: yeast surface display, equilibrium titration with biotinylated CEA, flow cytometry, 37 C
T1 construct: also called biotinylated-CEA; bio-CEA
T1 sequence (looked up): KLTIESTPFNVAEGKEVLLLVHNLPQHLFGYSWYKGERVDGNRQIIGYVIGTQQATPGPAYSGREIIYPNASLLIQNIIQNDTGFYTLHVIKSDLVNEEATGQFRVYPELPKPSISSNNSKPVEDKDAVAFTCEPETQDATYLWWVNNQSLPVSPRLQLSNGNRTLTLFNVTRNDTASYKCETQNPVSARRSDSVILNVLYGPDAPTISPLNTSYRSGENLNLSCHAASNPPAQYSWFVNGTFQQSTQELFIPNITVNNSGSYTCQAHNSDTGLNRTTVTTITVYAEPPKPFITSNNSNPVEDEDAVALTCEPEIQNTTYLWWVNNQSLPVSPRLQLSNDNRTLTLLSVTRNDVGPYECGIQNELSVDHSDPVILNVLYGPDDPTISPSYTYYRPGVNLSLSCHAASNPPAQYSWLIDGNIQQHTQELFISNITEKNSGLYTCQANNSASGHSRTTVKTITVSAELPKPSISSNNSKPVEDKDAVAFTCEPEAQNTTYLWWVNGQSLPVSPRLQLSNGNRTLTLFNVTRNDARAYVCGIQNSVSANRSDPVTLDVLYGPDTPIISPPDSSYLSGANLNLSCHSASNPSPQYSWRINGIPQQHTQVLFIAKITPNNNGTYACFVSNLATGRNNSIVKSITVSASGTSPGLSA
Method: Equilibrium binding constants KD for CEA at 37° C. A) Plot of CEA binding (measured fluorescence) versus CEA concentration. B) CEA binding (normalized for different display levels) versus CEA concentration. […] C) Soluble production of MFE-23 (1) and hMFE (2) at 37° C. for 48 hours. Additional lanes are the scFvs produced at 37° C. and 20° C. for varying amounts of time.

[3] = molecular target: T1, carcinoembryonic antigen (CEA); assay: yeast surface display, off-rate analysis
[4] = molecular target: T1, carcinoembryonic antigen (CEA); assay: off-rate analysis on the yeast surface at 37 C
[5] = molecular target: T1, carcinoembryonic antigen (CEA); assay: yeast surface display, dissociation of biotinylated CEA in excess unlabelled CEA, flow cytometry
Method: Binding analysis of clones isolated from aggressive hMFE Library sort. A) Equilibrium Titration (Example 3). hMFE (kD±8.5±0.5 nM) (●), m9B (kD=0.8±0.1 nM) (▪), m10B (kD=0.08±0.01 nM) (♦)B). Off-rate. Dissociation rates were measured by first labeling yeast displaying the scFv of interest with biotinylated CEA. Then, the labeled cells were washed and incubated with an excess of nonbiotinylated CEA. Dissociation of labeled CEA from the cells was followed at the single cell level by flow cytometry and streptavidin-PE labeling, as described in Example 3. hMFE (koff=1.2±0.1×10⁻³ s⁻¹) (●), m9B (koff=7.5±0.4×10⁻⁵ s⁻¹) (▪), m10B (koff=6.0±0.4×10⁻⁶ s⁻¹) (♦).

[6] = molecular target: T1, carcinoembryonic antigen (CEA); assay: yeast surface display, off-rate analysis with biotinylated CEA and excess unlabelled CEA, flow cytometry
[7] = molecular target: T1, carcinoembryonic antigen (CEA); assay: yeast surface display, dissociation of biotinylated CEA in 100-fold excess unlabelled CEA at 37 C, flow cytometry
[8] = molecular target: T1, carcinoembryonic antigen (CEA); assay: yeast surface display, equilibrium titration with biotinylated CEA
[9] = molecular target: T1, carcinoembryonic antigen (CEA); assay: yeast surface display, equilibrium titration with biotinylated CEA, flow cytometry

koff [1]: 1.2e-06 s⁻¹
Molecule: sm3E+T98A (scFv)

Kd [2]: 8.3 nM and 7.5 nM
B1: MFE-23 scFv (scFv)
scFv: QVKLQQSGAELVRSGTSVKLSCTASGFNIKDSYMHWLRQGPEQGLEWIGWIDPENGDTEYAPKFQGKATFTTDTSSNTAYLQLSSLTSEDTAVYYCNEGTPTGPYYFDYWGQGTTVTVSSGGGGSGGGGSGGGGSENVLTQSPAIMSASPGEKVTITCSASSSVSYMHWFQQKPGTSPKLWIYSTSNLASGVPARFSGSGSGTSYSLTISRMEAEDAATYYCQQRSSYPLTFGAGTKLELKRAA
notes: Tested on the yeast surface as an Aga2p fusion in pCTCON, with an HA tag N-terminal and a c-myc tag C-terminal of the scFv

half-life for binding to CEA [3]: 0.167 h
koff [4]: 0.0009 s⁻¹
Kd [2]: 8.3 nM and 8.5 nM
koff [5]: 0.0012 s⁻¹
B2: humanized MFE-23 (hMFE) scFv (scFv)
scFv: PYDVPDYALQASGGGGSGGGGSGGGGSASQVKLEQSGAEVVKPGASVKLSCKASGFNIKDSYMHWLRQGPGQRLEWIGWIDPENGDTEYAPKFQGKATFTTDTSANTAYLGLSSLRPEDTAVYYCNEGTPTGPYYFDYWGQGTLVTVSSGGGGSGGGGSGGGGSENVLTQSPSSMSASVGDRVNIACSASSSVSYMHWFQQKPGKSPKLWIYSTSNLASGVPSRFSGSGSGTDYSLTISSMQPEDAATYYCQQRSSYPLTFGGGTKLEIKAAAGSEQKLISEEDL
notes: also called hMFE-23; resurfaced scFv

koff [6]: 0.00011 s⁻¹
B3: sm9B (scFv)
chain: PYDVPDYALQASGGGGSGGGGSGGGGSASQVKLEQSGAEVVKPGASVKLSCKASGFNIKDSYMHWLRQGPGQRLEWIGWIDPENGDTEYAPKFQGKATFTTDTSANTAYLGLSSLRPEDTAVYYCNEGTPTGPYYFDYWGQGTLVTVSSGGGGSGGGGSGGGGSENVLTQSPSSMSASVGDRVTIACSASSSVPYMHWLQQKPGKSPKLLIYSTSNLASGVPSRFSGSGSGTDYSLTISSVQPEDAATYYCQQRSSYPLTFGGGTKLEIKAAAGSEQKLISEEDL

koff [7]: 2.6e-06 s⁻¹
B4: m8E (scFv)
chain: PYDVPDYALQASGGGGSGGGGSGGGGSASQVKLEQSGAEVVKPGASVKLSCKASGFNIKDSYMHWLRQGPGQRLEWIGWIDPQNGDTEYAPKFQGKATFTTDTSANTAYLGLSSLRPEDTAVYYCNEGTPAGPYYFDYWGQGTLVTVSSGGGGSGGGGSGGGGSENVLTQSPSSMSASVGDRVNIACSASSSVSYMHWFQQKPGKSPKLWIYLTSNLAPGVPSRFSGSGSGTDYSLTISSMQPEDAATYYCQQRSSYPLTFGGGTKLEIKAAAGSEQKLISEEDL

koff [4]: 8.2e-06 s⁻¹
koff [6]: 8.3e-06 s⁻¹
B5: sm10B (scFv)
chain: PYDVPDYALQASGGGGSGGGGSGGGGSASQVKLEQSGAEVVKPGASVKLSCKASGFNIKDSYMHWLRQGPGQRLEWIGWIDPENGDTEYAPKFQGKATFTTDTSANTAYLGLSSLRPEDTAVYYCNEGTPTGPYYFDYWGQGTLVTVSSGGGGSGGGGSGGGGSENVLTQSPSSMSASVGDRVTIACSASSSVPYMHWFQQKPGKSPKLLIYLTSNLASGVPSRFSGSGSGTDYSLTISSVQPEDAATYYCQQRSSYPLTFGGGTKLEIKAAAGSEQKLISEEDL

fold improvement in off-rate over hMFE [4]: 1.5 fold
koff [4]: 0.0006 s⁻¹
B6: hMFE+T98A (scFv)
chain: PYDVPDYALQASGGGGSGGGGSGGGGSASQVKLEQSGAEVVKPGASVKLSCKASGFNIKDSYMHWLRQGPGQRLEWIGWIDPENGDTEYAPKFQGKATFTTDTSANTAYLGLSSLRPEDTAVYYCNEGTPAGPYYFDYWGQGTLVTVSSGGGGSGGGGSGGGGSENVLTQSPSSMSASVGDRVNIACSASSSVSYMHWFQQKPGKSPKLWIYSTSNLASGVPSRFSGSGSGTDYSLTISSMQPEDAATYYCQQRSSYPLTFGGGTKLEIKAAAGSEQKLISEEDL

fold improvement in the off-rate over hMFE [3]: 16 fold
fold improvement in the dissociation constant over hMFE [8]: 10 fold
Kd [9]: 0.8 nM
koff [5]: 7.5e-05 s⁻¹
B7: m9B (scFv)
chain: PYDVPDYALQASGGGGSGGGGSGGGGSASQVKLEQSGAEVVKPGASVKLSCKASGFNIKDSYMHWLRQGPGQRLEWIGWIDPENGDTEYAPKFQGKATFTTDTSANTAYLGLSSLRPEDTAVYYCNEGTPTGPYYFDYWGQGTLVTVSSGGGGSGGGGSGGGGSENVLTQSPSSMSASVGDRVNIACSASSSVSYMHWLQQKPGKSPKLWIYSTSNLASGVPSRFSGSGSGTDYSLTISSMQPEDAATYYCQQRSSYPLTFGGGTKLEIKAAAGSEQKLISEEDL

fold improvement in the off-rate over hMFE [3]: 200 fold
fold improvement in the affinity over hMFE [8]: 100 fold
Kd [9]: 0.08 nM
koff [5]: 6e-06 s⁻¹
B8: m10B (scFv)
chain: PYDVPDYALQASGGGGSGGGGSGGGGSASQVKLEQSGAEVVKPGASVKLSCKASGFNIKDSYMHWLRQGPGQRLEWIGWIDPENGDTEYAPKFQGKATFTTDTSANTAYLGLSSLRPEDTAVYYCNEGTPTGPYYFDYWGQGTLVTVSSGGGGSGGGGSGGGGSENVLTQSPSSMSASVGDRVNIACSASSSVSYMHWFQQKPGKSPKLWIYLTSNLASGVPSRFSGSGSGTDYSLTISSMQPEDAATYYCQQRSSYPLTFGGGTKLEIKAAAGSEQKLISEEDL

koff [7]: 1.8e-06 s⁻¹
B9: m7E (scFv)
chain: PYDVPDYALQASGGGGSGGGGSGGGGSASQVKLEQSGAEVVKPGASVKLSCKASGFNIKDSYMHWLRQGPGQRLEWIGWIDPENGDTEYAPKFQGKATFTTDTSANTAYLGLSSLRPEDTAVYYCNEGTPTGPYYFDYWGQGTLVTVSSGGGGSGGGGSGGGGSENVLTQSPSSMSASVGDRVNIACNASSSVSYMHWLQQKPGKSPKLWIYLTSNLAPGVPSRFSGSGSGTDYSLTISSMQPEDAATYYCQQRSSYPLTFGGGTKLEIKAAAGSEQKLISEEDL

koff [4]: 6.8e-06 s⁻¹
B10: sm10B+T98A (scFv)
chain: PYDVPDYALQASGGGGSGGGGSGGGGSASQVKLEQSGAEVVKPGASVKLSCKASGFNIKDSYMHWLRQGPGQRLEWIGWIDPENGDTEYAPKFQGKATFTTDTSANTAYLGLSSLRPEDTAVYYCNEGTPAGPYYFDYWGQGTLVTVSSGGGGSGGGGSGGGGSENVLTQSPSSMSASVGDRVTIACSASSSVPYMHWFQQKPGKSPKLLIYLTSNLASGVPSRFSGSGSGTDYSLTISSVQPEDAATYYCQQRSSYPLTFGGGTKLEIKAAAGSEQKLISEEDL

half-life for binding to CEA [3]: ~168 h
koff [7]: 1.2e-06 s⁻¹
B11: m3E (scFv)
chain: PYDVPDYALQASGGGGSGGGGSGGGGSASQVKLEQSGAEVVKPGASVKLSCKASGFNIKDSYMHWLRQGPGQRLEWIGWIDPENGDTEYAPKFQGKATFTTDTSANTAYLGLSSLRPEDTAVYYCNEGTPTGPYYFDYWGQGTLVTVSSGGGGSGGGGSGGGGSENVLTQSPSSMSASVGDRVNIACSASSSVSYMHWLQQKPGKSPKLWIYLTSNLASGVPSRFSGSGSGTDYSLTISSMQPEDAATYYCQQRSSYPLTFGGGTKLEIKAAAGSEQKLISEEDL
